Experimental findings from patent US20140073518A1 (Stanford University, published 2014) are described below.

Assay [1] has as its target T1, αvβ3 integrin on K562-αvβ3 cells (K562 leukemia cells transfected with αvβ3 integrin) (UniProt P06756 31-1048; P05106 27-788).
T1 construct: whole, on cells; also called cell-surface αvβ3 integrin
As to the kind of experiment: binding to cells that express αvβ3 integrin.

Assay [2] concerns the target T1, αvβ3 integrin on K562-αvβ3 cells (K562 …). Kind of assay: flow cytometry on K562-αvβ3 cells, anti-FLAG detection.
For assay [3], the target named is T2, Gas6 (growth arrest-specific 6), soluble, hexahistidine-tagged (UniProt Q14393 49-678, limits assumed).
T2 construct: also called Gas6 ligand; soluble Gas6
T2 sequence (looked up): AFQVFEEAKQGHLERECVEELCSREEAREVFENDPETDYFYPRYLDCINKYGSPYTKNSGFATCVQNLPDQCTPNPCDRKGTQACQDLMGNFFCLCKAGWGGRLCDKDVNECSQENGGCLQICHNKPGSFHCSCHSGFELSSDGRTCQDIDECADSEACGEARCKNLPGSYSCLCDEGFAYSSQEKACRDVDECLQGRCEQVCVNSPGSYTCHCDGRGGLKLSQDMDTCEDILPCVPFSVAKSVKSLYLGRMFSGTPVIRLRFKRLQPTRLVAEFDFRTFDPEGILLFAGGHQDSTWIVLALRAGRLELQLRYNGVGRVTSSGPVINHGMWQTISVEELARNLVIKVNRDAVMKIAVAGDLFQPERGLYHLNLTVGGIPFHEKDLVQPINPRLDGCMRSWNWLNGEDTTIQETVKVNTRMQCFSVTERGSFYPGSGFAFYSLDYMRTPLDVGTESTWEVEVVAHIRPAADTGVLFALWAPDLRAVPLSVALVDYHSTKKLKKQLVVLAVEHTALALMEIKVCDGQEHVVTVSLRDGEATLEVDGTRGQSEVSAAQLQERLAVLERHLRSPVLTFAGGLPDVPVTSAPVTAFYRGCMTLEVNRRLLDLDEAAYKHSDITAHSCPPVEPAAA
As to the kind of experiment: yeast surface display, flow cytometry. For orientation: Flow cytometry measures light scatter and fluorescence of single cells or particles in a stream.

In assay [4] the target is T2, Gas6 (growth arrest-specific 6), …. As to the kind of experiment: yeast surface display, soluble Gas6.
Assay [5] addresses T1, αvβ3 integrin on K562-αvβ3 cells (K562 …). Kind of assay: K562-αvβ3 cell binding assay.
Assay [6] deals with T3, soluble Alexa-488 labeled human Met-Fc (human, UniProt P08581 25-932, limits assumed, Alexa-488 label).
T3 construct: not shown: Fc part
T3 sequence (P08581 25-932 limits assumed): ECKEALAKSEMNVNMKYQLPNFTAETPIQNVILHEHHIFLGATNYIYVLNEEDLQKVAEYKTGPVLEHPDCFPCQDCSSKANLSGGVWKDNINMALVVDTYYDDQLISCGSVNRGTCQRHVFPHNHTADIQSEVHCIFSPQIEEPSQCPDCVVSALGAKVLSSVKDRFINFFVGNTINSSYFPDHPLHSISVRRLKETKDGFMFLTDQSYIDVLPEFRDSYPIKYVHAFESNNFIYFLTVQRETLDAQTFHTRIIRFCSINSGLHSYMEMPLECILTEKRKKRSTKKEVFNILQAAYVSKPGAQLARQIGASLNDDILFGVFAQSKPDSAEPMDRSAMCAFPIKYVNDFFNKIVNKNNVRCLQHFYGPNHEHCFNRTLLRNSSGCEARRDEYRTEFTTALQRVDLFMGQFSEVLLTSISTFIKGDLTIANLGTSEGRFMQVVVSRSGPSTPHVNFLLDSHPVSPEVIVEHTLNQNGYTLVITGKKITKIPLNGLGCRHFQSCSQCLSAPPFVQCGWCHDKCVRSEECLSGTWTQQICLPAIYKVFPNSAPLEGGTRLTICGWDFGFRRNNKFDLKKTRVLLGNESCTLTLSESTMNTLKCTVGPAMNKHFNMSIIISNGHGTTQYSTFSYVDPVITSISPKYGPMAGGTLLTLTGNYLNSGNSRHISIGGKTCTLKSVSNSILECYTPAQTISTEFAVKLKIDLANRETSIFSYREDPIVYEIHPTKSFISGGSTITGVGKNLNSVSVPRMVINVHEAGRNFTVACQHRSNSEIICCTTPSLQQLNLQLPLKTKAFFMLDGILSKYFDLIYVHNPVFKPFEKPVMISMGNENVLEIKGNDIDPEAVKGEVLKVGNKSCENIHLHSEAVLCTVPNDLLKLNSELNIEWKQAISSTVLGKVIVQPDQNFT
As to the kind of experiment: dual receptor direct binding assay, flow cytometry; 220 nM Met-Fc, 2 or 20 nM protein.

Assay [7] addresses T4, soluble αvβ3 integrin (UniProt P06756 31-992; P05106 27-718).
T4 construct: also called alpha v beta 3 integrin
Kind of assay: yeast surface display, flow cytometry.

Assay [8] has as its target T1, αvβ3 integrin on K562-αvβ3 cells (K562 …). As to the kind of experiment: binding titration of the soluble fusion protein on K562-αvβ3 cells, flow cytometry; the cells express αvβ3 integrin and also Met receptor.

T1 sequence (P06756 31-1048, chain 1 of 2): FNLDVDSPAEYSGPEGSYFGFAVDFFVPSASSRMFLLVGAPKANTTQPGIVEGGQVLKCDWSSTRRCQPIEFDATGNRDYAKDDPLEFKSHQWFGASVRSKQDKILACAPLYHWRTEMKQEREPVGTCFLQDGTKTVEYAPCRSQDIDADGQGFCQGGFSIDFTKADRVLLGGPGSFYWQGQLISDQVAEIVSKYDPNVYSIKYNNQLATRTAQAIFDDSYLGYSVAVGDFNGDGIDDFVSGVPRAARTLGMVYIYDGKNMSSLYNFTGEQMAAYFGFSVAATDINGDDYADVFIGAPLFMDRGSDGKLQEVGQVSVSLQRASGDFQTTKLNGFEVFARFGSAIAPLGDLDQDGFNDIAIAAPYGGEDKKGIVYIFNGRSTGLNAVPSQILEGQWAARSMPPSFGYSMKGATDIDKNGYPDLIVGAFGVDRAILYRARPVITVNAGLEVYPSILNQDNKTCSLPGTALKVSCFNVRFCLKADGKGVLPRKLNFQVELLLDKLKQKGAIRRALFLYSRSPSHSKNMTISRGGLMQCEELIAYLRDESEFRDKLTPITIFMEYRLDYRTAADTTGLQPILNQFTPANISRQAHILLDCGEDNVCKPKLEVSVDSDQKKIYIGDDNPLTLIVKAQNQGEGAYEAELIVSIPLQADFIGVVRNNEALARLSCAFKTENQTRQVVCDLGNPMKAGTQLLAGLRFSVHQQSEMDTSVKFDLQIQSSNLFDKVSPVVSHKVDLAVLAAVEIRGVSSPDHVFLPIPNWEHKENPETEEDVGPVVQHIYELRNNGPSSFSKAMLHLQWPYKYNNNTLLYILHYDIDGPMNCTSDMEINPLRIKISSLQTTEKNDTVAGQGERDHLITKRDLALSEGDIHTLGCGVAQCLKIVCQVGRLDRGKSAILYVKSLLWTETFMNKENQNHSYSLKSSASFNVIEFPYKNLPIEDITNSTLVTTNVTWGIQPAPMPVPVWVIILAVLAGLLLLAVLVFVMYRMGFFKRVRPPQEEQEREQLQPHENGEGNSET
T1 sequence (P05106 27-788, chain 2 of 2): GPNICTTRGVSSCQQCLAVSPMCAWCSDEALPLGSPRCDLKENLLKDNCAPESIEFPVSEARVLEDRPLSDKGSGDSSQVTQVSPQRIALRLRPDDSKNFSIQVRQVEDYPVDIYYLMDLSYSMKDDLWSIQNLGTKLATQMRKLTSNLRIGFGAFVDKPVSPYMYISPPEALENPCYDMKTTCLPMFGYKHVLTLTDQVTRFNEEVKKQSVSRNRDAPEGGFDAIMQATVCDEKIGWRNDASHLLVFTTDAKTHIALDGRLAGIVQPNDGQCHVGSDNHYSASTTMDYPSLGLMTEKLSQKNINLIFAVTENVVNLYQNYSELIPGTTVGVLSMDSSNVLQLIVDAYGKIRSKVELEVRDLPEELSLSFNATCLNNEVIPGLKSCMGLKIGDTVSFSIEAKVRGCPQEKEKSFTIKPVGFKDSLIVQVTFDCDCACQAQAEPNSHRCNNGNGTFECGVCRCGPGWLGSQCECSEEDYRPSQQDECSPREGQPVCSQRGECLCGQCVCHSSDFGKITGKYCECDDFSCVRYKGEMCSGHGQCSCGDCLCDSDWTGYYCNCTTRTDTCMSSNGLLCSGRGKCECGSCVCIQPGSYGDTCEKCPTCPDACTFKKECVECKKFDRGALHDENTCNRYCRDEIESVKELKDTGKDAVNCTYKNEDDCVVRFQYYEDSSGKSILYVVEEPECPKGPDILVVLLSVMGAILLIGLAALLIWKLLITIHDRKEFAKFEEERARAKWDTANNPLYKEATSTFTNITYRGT
T4 sequence (P06756 31-992, chain 1 of 2): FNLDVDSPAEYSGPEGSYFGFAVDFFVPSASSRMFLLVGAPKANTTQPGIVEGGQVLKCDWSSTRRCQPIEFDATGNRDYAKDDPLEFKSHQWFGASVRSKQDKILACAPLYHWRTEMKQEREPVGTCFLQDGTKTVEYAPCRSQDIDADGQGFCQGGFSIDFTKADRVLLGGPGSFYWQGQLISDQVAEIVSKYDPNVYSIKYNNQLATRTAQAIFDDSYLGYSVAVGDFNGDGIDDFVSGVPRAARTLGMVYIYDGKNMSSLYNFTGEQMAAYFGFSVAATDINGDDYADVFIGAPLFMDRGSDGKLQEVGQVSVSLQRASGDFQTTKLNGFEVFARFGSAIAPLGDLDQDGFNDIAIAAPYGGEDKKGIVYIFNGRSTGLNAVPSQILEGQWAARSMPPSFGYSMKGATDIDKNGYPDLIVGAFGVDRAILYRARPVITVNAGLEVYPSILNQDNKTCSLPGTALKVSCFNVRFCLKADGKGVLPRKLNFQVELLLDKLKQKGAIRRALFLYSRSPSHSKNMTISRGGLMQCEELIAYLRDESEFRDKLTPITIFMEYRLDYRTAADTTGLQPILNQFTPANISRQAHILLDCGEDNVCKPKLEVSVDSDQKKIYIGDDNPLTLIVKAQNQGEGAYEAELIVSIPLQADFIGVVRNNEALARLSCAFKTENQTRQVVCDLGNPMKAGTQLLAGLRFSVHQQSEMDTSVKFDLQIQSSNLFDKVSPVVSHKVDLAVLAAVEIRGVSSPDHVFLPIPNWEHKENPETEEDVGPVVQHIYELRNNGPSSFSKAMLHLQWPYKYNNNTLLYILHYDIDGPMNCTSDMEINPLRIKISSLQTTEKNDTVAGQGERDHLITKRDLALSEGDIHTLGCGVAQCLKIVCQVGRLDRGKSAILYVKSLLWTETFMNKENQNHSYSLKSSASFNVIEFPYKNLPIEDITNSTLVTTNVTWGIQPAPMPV
T4 sequence (P05106 27-718, chain 2 of 2): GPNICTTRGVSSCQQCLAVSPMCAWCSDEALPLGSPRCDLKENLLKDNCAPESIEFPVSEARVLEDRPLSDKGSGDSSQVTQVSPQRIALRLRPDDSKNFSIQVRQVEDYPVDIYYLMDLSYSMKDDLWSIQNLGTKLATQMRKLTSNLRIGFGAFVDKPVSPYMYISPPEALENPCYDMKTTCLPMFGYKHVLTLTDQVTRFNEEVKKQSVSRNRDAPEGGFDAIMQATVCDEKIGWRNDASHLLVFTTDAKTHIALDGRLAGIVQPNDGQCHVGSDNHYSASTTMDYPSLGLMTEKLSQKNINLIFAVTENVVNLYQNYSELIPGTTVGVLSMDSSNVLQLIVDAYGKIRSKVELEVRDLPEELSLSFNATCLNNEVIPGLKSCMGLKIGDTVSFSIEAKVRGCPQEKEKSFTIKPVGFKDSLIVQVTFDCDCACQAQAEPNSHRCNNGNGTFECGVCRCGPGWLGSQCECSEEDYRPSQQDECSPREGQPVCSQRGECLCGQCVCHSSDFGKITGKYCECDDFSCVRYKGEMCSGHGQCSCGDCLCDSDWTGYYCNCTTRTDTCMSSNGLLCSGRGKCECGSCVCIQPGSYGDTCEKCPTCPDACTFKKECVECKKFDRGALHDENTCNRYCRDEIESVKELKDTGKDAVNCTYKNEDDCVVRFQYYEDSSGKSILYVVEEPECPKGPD

B1: EETI 2.5D-Axl fusion protein (soluble, produced in P. pastoris) (designed binder)
chain: GCPQGRGDWAPTSCSQDSDCLAGCVCGPNGFCGSRGTQAEESPFVGNPGNITGARGLTGTLRCQLQVQGEPPEVHWLRDGQILELADSTQTQVPLGEDEQDDWIVVSQLRITSLQLSDTGQYQCLVFLGHQTFVSQPGYVGLEGLP
notes: Treated with endoH; monomeric; also called 2.5D - Axl Ig1; recombinantly produced EETI 2.5D-Axl
Turning to B1, the Kd (usually the constant that tells how readily two partners part at equilibrium) in assay [1] is about 2 nM; in assay [2] it was 1.72 nM. For the molecule GCPQGRGDWAPTSCKQDSDCRAGCVCGPNGFCG (designed binder, also called EETI 2.5D) [EETI-II mutant 2.5D (yeast-displayed)], the binding result in assay [3] is “no binding (tested: 0.2, 2 or 20 nM Gas6)”. For the molecule GCLGGVALAHCKQDSDCLAGCVCHILPELCGS (designed binder, also called EETI-II mutants alone) [EETI-II mutant of EA 7.06 alone (expressed without Axl)], in assay [4], the binding result is “no binding”. On the same count and under the same terms, the same measure for GCALMTPSAVDCKQDSDCLAGCVCLPGMVRCGS (designed binder, also called EETI-II mutants alone) [EETI-II mutant of EA 7.01 alone (expressed without Axl)]: “no binding”.

B2: EETI2.5F-M2.2(D127A) fusion protein (designed binder)
chain: DYKDDDDKPRGCPRPRGDNPPLTCSQDSDCLAGCVCGPNGFCGYAEGQRKRRNTIHEFKKSAKTTLIKIDPALKIKTEKVNTADQCANRCTRNKGLPFTCKAFVFDKARKRCLWFPFNSMSSGVKKEFGHEFDLYENKDYIRACIIGNGRSYRGTVSITKSGIKCQPWSSMIPHEHSFLPSSYRGEDLRENYCRNPRGEEGGPWCFTSDPEVRYEVCDIPQCSEVETRHHHHHH
As for B2, the Kd in assay [5] was 4.6 nM. The binding result in assay [6] is “binds”.

B3: EETI2.5F-M2.2 fusion protein (designed binder)
chain: DYKDDDDKPRGCPRPRGDNPPLTCSQDSDCLAGCVCGPNGFCGYAEGQRKRRNTIHEFKKSAKTTLIKIDPALKIKTEKVNTADQCANRCTRNKGLPFTCKAFVFDKARKRCLWFPFNSMSSGVKKEFGHEFDLYENKDYIRDCIIGNGRSYRGTVSITKSGIKCQPWSSMIPHEHSFLPSSYRGEDLRENYCRNPRGEEGGPWCFTSDPEVRYEVCDIPQCSEVETRHHHHHH
Turning to B3, the binding result in assay [6] is “binds”.

B4: wild-type Axl Ig1 (yeast-displayed) (receptor)
chain: APRGTQAEESPFVGNPGNITGARGLTGTLRCQLQVQGEPPEVHWLRDGQILELADSTQTQVPLGEDEQDDWIVVSQLRITSLQLSDTGQYQCLVFLGHQTFVSQPGYVGLEGLP
notes: T0017 footnote says amino acids 19-132; also called Wt Axl; wt Axl Ig1
For B4, in assay [7], the binding result is “no binding (tested: 20, 50 or 100 nM αvβ3 integrin)”. Turning to GCSWSTLARCKQDSDCLAGCVCMLEPGMRSCGS (designed binder, also called EETI-II mutants alone) [EETI-II mutant of EA 8.04 alone (expressed without Axl)], in assay [4], the binding result is listed as “no binding”.

B5: AgRp7A-M2.2 fusion protein (designed binder)
chain: DYKDDDDKPRGCVRLHESCLGQQVPCCDPAATCYCSGRGDNDLVCYCRYAEGQRKRRNTIHEFKKSAKTTLIKIDPALKIKTEKVNTADQCANRCTRNKGLPFTCKAFVFDKARKRCLWFPFNSMSSGVKKEFGHEFDLYENKDYIRDCIIGNGRSYRGTVSITKSGIKCQPWSSMIPHEHSFLPSSYRGEDLRENYCRNPRGEEGGPWCFTSDPEVRYEVCDIPQCSEVETRHHHHHH
On to B5, for which, in assay [6], the binding result is “binds”.

B6: AgRP7A-Aras4 fusion protein (soluble, FLAG and His tagged) (designed binder)
chain: DYKDDDDKPRGCVRLHESCLGQQVPCCDPAATCYCSGRGDNDLVCYCRYAEGQGKRRNTIHEFKKSAKTTLIKIDPALRIKTEKANTADQCANRCTRSKGLPFTCKAFVFDKARKRCLWFPFNSMSSGVKKEFGHEFDLYENKAYIRDCIIGRGRNYRGTVSITKSGIKCQPWSAMIPHEHSFLPSSYRGEDLRENYCRNPRGEEGGPWCYTSDPEVRYEVCDIPQCSEVETRHHHHHH
notes: Produced in Pichia pastoris
With B6, the EC50 (read off the curve) (in general, the concentration needed to bring the measured effect to its halfway point) in assay [8] was about 1 nM.

B7: AgRp7A-M2.2(D127A) fusion protein (designed binder)
chain: DYKDDDDKPRGCVRLHESCLGQQVPCCDPAATCYCSGRGDNDLVCYCRYAEGQRKRRNTIHEFKKSAKTTLIKIDPALKIKTEKVNTADQCANRCTRNKGLPFTCKAFVFDKARKRCLWFPFNSMSSGVKKEFGHEFDLYENKDYIRACIIGNGRSYRGTVSITKSGIKCQPWSSMIPHEHSFLPSSYRGEDLRENYCRNPRGEEGGPWCFTSDPEVRYEVCDIPQCSEVETRHHHHHH
B7 gave a Kd in assay [5] of 2.1 nM. For the same molecule, the binding result in assay [6] is recorded as “binds”.
